Experiments:
MR-proADM [1] = molecular target: T1, MR-proADM (human); experiment: SPR, antigen 1
T1 chain: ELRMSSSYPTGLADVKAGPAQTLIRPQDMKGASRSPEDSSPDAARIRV

MR-proADM [2] = molecular target: T1, MR-proADM; experiment: SPR, antigen 2
MR-proADM [3] = molecular target: T1, MR-proADM; experiment: SPR, 25C pH 7.4, Ab 3-a
MR-proADM [4] = molecular target: T1, MR-proADM; experiment: SPR, 25C pH 7.4, Ab 3-d
MR-proADM [5] = molecular target: T1, MR-proADM; experiment: SPR, 25C pH 7.4, Ab 3-b
MR-proADM [6] = molecular target: T1, MR-proADM; experiment: SPR, 25C pH 7.4, Ab 3-c
MR-proADM [7] = molecular target: T1, MR-proADM; experiment: SPR, 25C pH 7.4
MR-proADM [8] = molecular target: T1, MR-proADM; experiment: SPR, 25C pH 7.4, Ab 2-b
MR-proADM [9] = molecular target: T1, MR-proADM; experiment: SPR, 25C pH 7.4, Ab 2-a
MR-proADM [10] = molecular target: T1, MR-proADM; experiment: SPR, 25C pH 7.4, Ab 2-c

B1: Ab3 (antibody, V domains shown)
VH: EVQLQQSGPELVRPGASVKISCKASGYSFTDYFMHWMKQSHVKSLEWIGRLNPYNGATNYNQNFKDKATLTVDKSSSTAYMELHSLTSEDSAVYYCLSFTTPPEAYWGQGTLVTVSA
VL: EIVMTQAAFSNPVTLGTSASISCRSNKSLLYSNGITYLFWYLQRPGQSPQLLIYQMSNLASGVPDRFSGSGSGTDFTLRISRVEAEDVGVYYCAQNLELPWTFGGGTKLEIK
Kd (MR-proADM [1]): 13.9 nM | Kd (MR-proADM [2]): 17.4 nM | Kd (MR-proADM [3]): 14.8 nM | Kd (MR-proADM [4]): 20.1 nM | Kd (MR-proADM [5]): 17.1 nM | Kd (MR-proADM [6]): 18.8 nM

B2: Ab5 (antibody, V domains shown)
VH: EVQLQQSGPELVKPGASVKISCKASGYSFTDYYMHWVKQSHVKSLEWIGRINPYNGATKYNQNFKDKASLTVDKSSSTAYMELHSLTSEDSAVYYCTRRYDNDDGDYWGQGTTLRVSS
VL: DIVMTQAAFSNPVTLGTSASISCRSSKSLLYSNGITYLYWYLQKPGQSPQLLIYQMSNLASGVPDRFSSSGSGTDFTLRISRVEAEDVGVYYCAQNLELPWTFGGGTKLEIK
Kd (MR-proADM [1]): 6.47 nM | Kd (MR-proADM [2]): 101 nM | Kd (MR-proADM [7]): 247 nM

B3: Ab2 (antibody, V domains shown)
VH: QIQLVQSGPELRKPGETVKISCKASGYTFTDYSMHWVKQVPGKVLKWMGWINTETGEPTYVDDFKGRFAFSLETSASTAYLRINILKNEDAATYFCATNFDYWGQGTTLTVSS
VL: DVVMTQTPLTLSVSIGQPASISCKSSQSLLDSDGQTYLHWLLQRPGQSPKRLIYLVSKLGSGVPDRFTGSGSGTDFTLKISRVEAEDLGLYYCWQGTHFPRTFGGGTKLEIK
Kd (MR-proADM [1]): 2.49 nM | Kd (MR-proADM [2]): 2.57 nM | Kd (MR-proADM [8]): 3.02 nM | Kd (MR-proADM [9]): 2.97 nM | Kd (MR-proADM [10]): 2.82 nM

From patent US20260318927 (published 2026)
